# Measurements: patent publication US8669088B2, “Enzyme associated with equol synthesis” (Otsuka Pharmaceutical Co., Ltd., priority 2007, dated 2014)
# Experiments:
# [1] = system: His-tagged recombinant E1 enzyme; experiment: Influence of metal ions / reducing agent on dihydrodaidzein synthesis activity of E1 enzyme; assay type: biochemical, Lactococcus 20-92 strain; details: for influence of metal ions on the conversion activity from daidzein to dihydrodaidzein: 100 μl of 100 mM metal ion solution in 1000 μl, 37° C., 2 hours, HPLC (FIG. 26); for activation of E1 enzyme (dihydrodaidzein synthesizing enzyme activity): general statement in the description
# Method: Using the His-tagged recombinant E1 enzyme ([…]) expressed in Escherichia coli, purified by Ni-Sepharose, as an enzyme source, the influence of metal ions on the conversion activity from daidzein to dihydrodaidzein was examined. Various metals (MnCl2.2H2O, FeSO4.7H2O, CaCl2.2H2O, Zn(CH3C00)2.2H2O, CoSO4.7H2O, MgSO4.7H2O, NiSO4.6H2O) were dissolved in distilled water to obtain a concentration of 100 mM. Using the metal ion solution, an enzyme reaction mixture of the composition below was prepared, and was reacted at 37° C. for 2 hours to measure the activity. [table] After incubation, 3 mL of ethyl acetate was added to the obtained enzyme reaction mixture for extraction. After drying, the extract was dissolved by the mobile phase (eluent). The dissolved product was analyzed by HPLC to measure the contents of daidzein and dihydrodaidzein in the enzyme reaction mixture.
# [2] = system: dihydrodaidzein; experiment: Tetrahydrodaidzein biosynthesis activity in centrifuged supernatant of disrupted cell material and NADH or NADPH dependency (Example B2); assay type: biochemical, Lactococcus 20-92 strain; details: centrifuged supernatant of disrupted cells; 37° C., 2 hours; HPLC (FIG. 11)
# Method: The frozen cells were thawed and centrifuged at 4° C. for 15 minutes (5,000×G). The pellet was used in the test below. First, the pellet (wet weight 2.7 g) was suspended in 10 ml of a 0.1 M phosphate-potassium solution containing 1 mM PMSF and 5 mM sodium hydrosulfite. After preheating at 37° C. for 5 minutes, lysozyme was added in an amount of 100 mg per gram of the pellet (wet weight) to cause a reaction at 37° C. for 1.5 hours. Then, an equivalent amount of 0.1 M dipotassium phosphate solution was added to the reaction mixture, and the mixture was vigorously agitated with a vortex mixer after adding zirconia-silica beads (3 ml). The cells were then disrupted with a sonicator (Branson Sonifier Cell Disruptor 200) (3 cycles of a 5-minute sonication and a 2-minute rest). The disrupted cell suspension was centrifuged at about 10,000×G for 15 minutes to obtain a supernatant, which was then used as an enzyme source. An enzyme reaction mixture of the composition below was prepared, and was incubated at 37° C. for 2 hours. After incubation, 5 mL of ethyl acetate was added to the enzyme reaction product for extraction. Then, the product was dried to prepare a sample for HPLC analysis. [table]
# [3] = system: disrupted cell material of Lactococcus 20-92 strain; experiment: Enzyme reaction with disrupted cell material of Lactococcus 20-92 strain as enzyme source (Example B1); assay type: biochemical; details: 10 μg/mL substrate, 2 mM NADPH, 2 mM NADH, 37° C., 2 hours
# Method: The Lactococcus 20-92 strain cells preserved at −80° C. were quickly thawed. The cells were suspended by tapping, and centrifuged at 4° C. (8,000 rpm×5 min) using a centrifuge VC-960 (Taitec). After removing the supernatant, 0.1 M potassium phosphate buffer/1 mM PMSF (phenylmethanesulfonyl fluoride)/2 mM DTT (dithiothreitol)/5 mM sodium hydrosulfite (pH 7.0) were added to obtain a cell suspension. The cell suspension was placed in a 2 ml tube prepared to include zirconia-silica beads (about 0.8 mL, 0.1 mm, 1 lb; Wakenyaku Co., Ltd.), and the tube was charged with 0.1 M potassium phosphate solution/1 mM PMSF/2 mM DTT/5 mM sodium hydrosulfite (pH 7.0) to fill the tube almost completely. For disruption, the tube was closed and kept on ice, where a cycle of 6,500 rpm×20 sec centrifugation and ice-cooling was repeated four times using FastPrep®-FP100A (Thermo Electron Corporation). The resulting disrupted cell material was used as an enzyme source in an enzyme reaction.
# A 1 mL enzyme reaction mixture of the composition below, containing 0.1 ml of the disrupted cell material obtained in (1) was prepared, and the mixture was incubated at 37° C. for 2 hours. After incubation, 3 mL of ethyl acetate was added to the resulting enzyme reaction product for extraction. The product was dried to prepare a sample for HPLC analysis. […]
# [4] = system: Lactococcus 20-92 strain; experiment: Equol biosynthetic activity of bacterial cell from tetrahydrodaidzein (Example C1); assay type: cell-based; details: 10 μg/mL in medium; 37° C., 18 hours, anaerobic; HPLC (FIG. 20)
# Method: A Lactococcus 20-92 strain (FERM BP-10036) was inoculated in a tetrahydrodaidzein-containing amplification liquid medium (a modified GAM bouillon medium (NISSUI PHARMACEUTICAL CO., LTD.) to which cis- or trans-tetrahydrodaidzein (organically-synthesized by Otsuka Pharmaceutical Co., Ltd.: see Reference Example B1) was added in an amount of 10 μg/mL), and the culture was incubated at 37° C. for 18 hours under anaerobic conditions (using BBL Gas Pack systems). After incubation, 1 mL of the culture was immediately placed in a glass centrifuge tube with cap, and 3 mL of ethyl acetate was added thereto for extraction. The product was dried to prepare a sample for HPLC analysis. As the standard solution for HPLC analysis, a mixed solution of daidzein (2 μg/mL; Funakoshi Corporation), equol (2 μg/mL; Funakoshi Corporation), dihydrodaidzein (2 μg/mL; Trend Research Chemicals Inc.), cis-tetrahydrodaidzein and trans-tetrahydrodaidzein (2 μg/mL; both chemically-synthesized by Otsuka Pharmaceutical Co., Ltd.) was used.
# [5] = system: daidzein; experiment: Enzyme property of E1 enzyme (dihydrodaidzein synthesis using daidzein as a substrate); assay type: biochemical
# Method: (§1) Regarding polypeptides (Ab) and (Ac), the activity to synthesize dihydrodaidzein using daidzein as a substrate can be confirmed as follows. First, a polypeptide of interest is added to a substrate solution of the composition below at a concentration of 0.001 mg/mL. The solution is then incubated at 37° C. for 2 hours to check for the presence or absence of dihydrodaidzein in the solution. The presence of dihydrodaidzein in the solution after incubation is used as an indicator of the polypeptide's activity to synthesize dihydrodaidzein using daidzein as a substrate.
# Since E1 polypeptide has an enzyme activity to synthesize dihydrodaidzein using daidzein as a substrate, E1 polypeptide is also referred to as E1 enzyme. E1 enzyme is activated by the presence of a reducing agent such as Na2S2O4 and metal ions such as Fe^2+ and Mn^2+. […] The optimal temperature of E1 enzyme is in the vicinity of 30° C., and the optimal pH is 7.0.
# [6] = system: dihydrodaidzein; experiment: Enzyme property of E2 enzyme (tetrahydrodaidzein synthesis using dihydrodaidzein as a substrate); assay type: biochemical
# Method: as §1, with “(Bb)” for “(Ab)”, “(Bc),” for “(Ac),”, “synthesize tetrahydrodaidzein using” for “synthesize”, “dihydrodaidzein” for “dihydrodaidzein using daidzein”, “tetrahydrodaidzein” for “dihydrodaidzein”, “substrate. Since E2 polypeptide has an enzyme activity to synthesize tetrahydrodaidzein using dihydrodaidzein as a substrate, E2 polypeptide is also referred to as E2 enzyme. […] The optimal temperature of E2 enzyme is in the vicinity of 37° C., and the optimal pH is 4.5.” for “substrate.”
# [7] = system: tetrahydrodaidzein; experiment: Enzyme property of E3 enzyme (equol synthesis using tetrahydrodaidzein as a substrate); assay type: biochemical
# Method: as §1, with “(Cb)” for “(Ab)”, “(Cc),” for “(Ac),”, “equol” for “dihydrodaidzein”, “tetrahydrodaidzein” for “daidzein”, “substrate. Since E3 polypeptide has an enzyme activity to synthesize equol using tetrahydrodaidzein as a substrate, E3 polypeptide is also referred to as E3 enzyme. The optimal temperature of E3 enzyme is in the vicinity of about 23 to 37° C., and the optimal pH is 4.5.” for “substrate.”
molecule,measurement,setting,value
[Fe+2] [Fe^2+],influence of metal ions on the conversion activity from daidzein to dihydrodaidzein,[1],stimulated the activity
same,activation of E1 enzyme (dihydrodaidzein synthesizing enzyme activity),[1],activated
[Mn+2] [Mn^2+],influence of metal ions on the conversion activity from daidzein to dihydrodaidzein,[1],stimulated the activity
same,activation of E1 enzyme (dihydrodaidzein synthesizing enzyme activity),[1],activated
NC(=O)C1=CN([C@@H]2O[C@H](COP(=O)(O)OP(=O)(O)OC[C@H]3O[C@@H](n4cnc5c(N)ncnc54)[C@H](OP(=O)(O)O)[C@@H]3O)[C@@H](O)[C@H]2O)C=CC1 [NADPH],coenzyme dependency of the conversion of dihydrodaidzein into tetrahydrodaidzein,[2],much more strongly
O=S([O-])S(=O)[O-].[Na+].[Na+] [Na2S2O4],activation of E1 enzyme (dihydrodaidzein synthesizing enzyme activity),[1],activated
Oc1ccc(C2COc3cc(O)ccc3C2O)cc1 (stereo not drawn) [cis-tetrahydrodaidzein],production of equol from tetrahydrodaidzein by enzyme reaction,[3]; HPLC (FIG. 10),equol was produced
same,equol biosynthesis from tetrahydrodaidzein by bacterial culture,[4],activity to biosynthesize equol
O=C1c2ccc(O)cc2OCC1c1ccc(O)cc1 (stereo not shown) [dihydrodaidzein],enzyme reaction product from dihydrodaidzein as a substrate,[3]; HPLC (FIG. 9),production of trans-tetrahydrodaidzein
"E1 enzyme: polypeptide (SEQ ID NO: 1) having an activity to synthesize dihydrodaidzein using daidzein as a substrate (protein, listed as Lactococcus garvieae) MKNKFYPKTFERGYIGNLEVENRAIRMPMGTELGNPDGSPSWASLKAYAEAADGGTGIVFMDNAGVTQFHHVGLSLASDNYIGPMSVLAKTIKQHGAIPGLQIVHPGRDAAFVRGDDLISSSRIQWEPWYENGGAVPRELTIEEIHDFVGYFGDCALRAQTAGFEIVDVHAACGVLLSNFLSPRNNTRNDMYGGSLHNRARFLLEVIRDIKKKCPNLPLAIRLSGIDFEPDGITIEETCEVAKMCEAAGADAINITWGSHAEVINAAGLLSKHGANHVEAAKMIKDAVSIPTMLCGGIYSPEIGEKLLEDGVCDFIGIGKPALADPMWAKKAAEGRPEDIRPCIGCGVGCHDRGMLSGGVVQCAVNAALYKFDEPVYPQAEVPKKVIIIGAGPAGCEAAITAKKCGHDVTIYEKRKIGGVLKEATVSDSKEDLGRLITYYETQLKKEGIEVIYEEATADTVVAGGFDVAIVACGATVRNLNIDGQDDPSVVYAMDFLDNDCKSDADRVVVVGGGIVGAETALILAEERGKDVTITTRSPEFFVSGVMGIAYMVRLGMAGVTIKPSTQLVAVKDGKPMFAGPRGLETLDVDQTIISSGFVPTFNQFRAQIEEKCEDVRVIGIGDCKASRMVMDAVHEGYIAGCNL",coenzyme requirement of E1 enzyme,[5],requires NADPH or NADH as a coenzyme
same,optimal pH of E1 enzyme,[5],7.0
same,optimal temperature of E1 enzyme,[5],~30 °C
same,reverse reaction of E1 enzyme,[5],synthesize daidzein from dihydrodaidzein
"E2 enzyme: polypeptide (SEQ ID NO: 7) having an activity to synthesize tetrahydrodaidzein using dihydrodaidzein as a substrate (protein, listed as Lactococcus garvieae) MAQEVKVPKMPGAPVFGKWISPEESVGQRLKGKKILLTGTTKGVGRVTQELLCAHGAFVCGSGRTPGVAASVADELKAKGYQAAGMDVDLSDYDAVKKWVEECAELMGGIDVVINNASHPGMAPFGEMTPEIWNYGIKNELDLVYNVCNCAWPYLQKADGASIIITSSTVALQGSNSPQACHAACKGACLSLARQLAAEGGPFGIRCNSVTPGLVWTEAMSNIPKEMASGLVAAQTTQQAVDPMDIAYAYLFLASDESRQITAANIPVDGGCAGAVTGGMQGEIEV",coenzyme requirement of E2 enzyme,[6],requires NADPH or NADH as a coenzyme
same,optimal pH of E2 enzyme,[6],4.5
same,optimal temperature of E2 enzyme,[6],~37 °C
same,reverse reaction of E2 enzyme,[6],synthesize dihydrodaidzein from tetrahydrodaidzein
"E3 enzyme: polypeptide (SEQ ID NO: 13) having an activity to synthesize equol using tetrahydrodaidzein as a substrate (protein, listed as Lactococcus garvieae) MAEFDVEYDLVVVGGGASGKSAALIAAREGKRVVVLEKMPETGGLSMYAEGTAAFESSIQNELGTPRLSKYHFPTKQEGIEKFMGYSHQRANYDVVRAFVENSAETIDIYRDLGVVYKACDIAAEDDPNEVWTFHLPEGLGAHCQEVLLDAIQKLDVDIFTSTPAKELIIEDGAVVGVVAESDGEPLRVGGKAVILATGGMGSSPERIFKYSWFAPAAYNMNTLTPLQNVGDGLDLALSAGADPTYITTCPILAAGGRDMTMDSQVGGAGVNPGVWINKTGRRFAAESVAENIGDIGTYYGKQPGGVVWSILSQADIDRLVAEGSEIAIGEFVVYHKPMERLPIELEAHLESGLVKKAGSFEELAALIDVPVDTFVATMADYNEACEKGYDDAFMKKPQYLRPMVEGPFYAIPLATGTMGSAGGIRINGNMQVVDADYNAIPGLYAVGLDATGLYGDSYNMEVPGAANGFAHTSGRIAARHAISTM",optimal pH of E3 enzyme,[7],4.5
same,reverse reaction of E3 enzyme,[7],synthesize tetrahydrodaidzein from equol
